In publication PMC3752404 (Molecular cell, 2011):
Values joined by “and” are separate entries in the source; they are usually repeats but may differ in a detail not shown here. Equal entries are not always repeated. Each block holds one molecule with its values, some of them ahead of it.

Legend:
[1] = target: Swi6 (wild type, tagged: N-terminal 6xHis and C-terminal FLAG) (S. pombe) (UniProt P40381); assay: equilibrium competition with a fluorescently labeled DNA
[2] = target: MLA methylated (H3Kc9me3) mononucleosome on the 147 bp 601 sequence; assay: AUC
[3] = target: H3K9 2N(L15) dinucleosome; assay: native gel or EMSA
[4] = target: H3K9 2N(L47) dinucleosome; assay: native gel or EMSA
[5] = target: H3Kc9me3 12N(L15) nucleosome array; assay: native gel or EMSA
[6] = target: H3Kc9me3 12N(L47) nucleosome array; assay: native gel or EMSA
[7] = target: H3Kc9me3 2N(L15) dinucleosome; assay: native gel or EMSA
[8] = target: H3Kc9me3 2N(L47) dinucleosome; assay: native gel or EMSA
[9] = target: MLA methylated (H3Kc9me3) mononucleosome on the 147 bp 601 sequence; assay: native gel or EMSA
[10] = target: Swi6 chromoshadow domain (WT CSD) (S. pombe)
[11] = target: Swi6 chromoshadow domain (WT CSD) (S. pombe); assay: ITC
SEC = target: the molecule itself; assay: SEC
H3K9me3 tail peptide = assay: fluorescence polarisation
SEC-MALS = target: the molecule itself; assay: SEC-MALS
SEC-MALS + cross-linking = target: the molecule itself; assay: SEC-MALS + cross-linking
cross-linking = target: the molecule itself; assay: cross-linking

- fold specificity over H3K9 nucleosomes [1]: 5 fold
Molecule: MLA methylated (H3Kc9me3) mononucleosome on the 147 bp 601 sequence (complex)

- stoichiometry N [2]: 4
- K1/2 [3]: 156 nM
- K1/2 [4]: 32 nM
- fold specificity over the H3K9 12N(L15) array (ratio of K1/2) [5]: 25 fold
- fold specificity over the H3K9 12N(L47) array (ratio of K1/2) [6]: 5.4 fold
- K1/2 [7]: 62 nM
- K1/2 [8]: 12 nM
- fold preference over H3K9 nucleosomes (ratio of K1/2) [9]: 5 fold
Molecule: Swi6 (wild type, tagged: N-terminal 6xHis and C-terminal FLAG) (from UniProt P40381 1-328) (natural protein)

- fold increase of affinity on removing the tags (nucleosomes and arrays): 2.5 fold
Molecule: Swi6 (wild type, untagged) (from UniProt P40381 1-328) (natural protein)

- stoichiometry N [2]: 2
- fold discrimination between methylated and unmethylated arrays [5]: 2 to 3 fold
Molecule: Swi6 L315D (from UniProt P40381 1-328) (natural protein)

- fold increase of specificity compared to WT Swi6 [5]: 7 fold
- fold specificity over the H3K9 12N(L15) array [5]: 130 fold
Molecule: Swi6 V82E-Y131W (from UniProt P40381 1-328) (natural protein)

- stoichiometry N [10]: 2
- Kd [11]: < 17 nM
Molecule: Swi6 chromoshadow domain (WT CSD) (domain or fragment)

Further lines, the molecule ahead of its results:

B1: Swi6 chromodomain (CD, aa 81-137) (domain or fragment, S. pombe, UniProt P40381 81-137, looked up)
chain: YVVEKVLKHRMARKGGGYEYLLKWEGYDDPSDNTWSSEADCSGCKQLIEAYWNEHGG
- stoichiometry N (SEC): 2

B2: Swi6 V82E (natural protein, S. pombe, UniProt P40381 1-328, looked up)
chain: MKKGGVRSYRRSSTSKRSVIDDDSEPELPSMTKEAIASHKADSGSSDNEVESDHESKSSSKKLKENAKEEEGGEEEEEDEYEVEKVLKHRMARKGGGYEYLLKWEGYDDPSDNTWSSEADCSGCKQLIEAYWNEHGGRPEPSKRKRTARPKKPEAKEPSPKSRKTDEDKHDKDSNEKIEDVNEKTIKFADKSQEEFNENGPPSGQPNGHIESDNESKSPSQKESNESEDIQIAETPSNVTPKKKPSPEVPKLPDNRELTVKQVENYDSWEDLVSSIDTIERKDDGTLEIYLTWKNGAISHHPSTITNKKCPQKMLQFYESHLTFRENE
- fold increase of binding (H3K9me3 tail peptide): 3 fold
- binding result (SEC-MALS): binds

B3: Swi6 (wild type, tagged: N-terminal 6xHis and C-terminal FLAG) (natural protein, S. pombe, UniProt P40381 1-328, looked up)
chain: MKKGGVRSYRRSSTSKRSVIDDDSEPELPSMTKEAIASHKADSGSSDNEVESDHESKSSSKKLKENAKEEEGGEEEEEDEYVVEKVLKHRMARKGGGYEYLLKWEGYDDPSDNTWSSEADCSGCKQLIEAYWNEHGGRPEPSKRKRTARPKKPEAKEPSPKSRKTDEDKHDKDSNEKIEDVNEKTIKFADKSQEEFNENGPPSGQPNGHIESDNESKSPSQKESNESEDIQIAETPSNVTPKKKPSPEVPKLPDNRELTVKQVENYDSWEDLVSSIDTIERKDDGTLEIYLTWKNGAISHHPSTITNKKCPQKMLQFYESHLTFRENE
- stoichiometry N (SEC-MALS + cross-linking): 8
- stoichiometry N (cross-linking): 2 and > 2

B4: Swi6 Y131W (natural protein, S. pombe, UniProt P40381 1-328, looked up)
chain: MKKGGVRSYRRSSTSKRSVIDDDSEPELPSMTKEAIASHKADSGSSDNEVESDHESKSSSKKLKENAKEEEGGEEEEEDEYVVEKVLKHRMARKGGGYEYLLKWEGYDDPSDNTWSSEADCSGCKQLIEAWWNEHGGRPEPSKRKRTARPKKPEAKEPSPKSRKTDEDKHDKDSNEKIEDVNEKTIKFADKSQEEFNENGPPSGQPNGHIESDNESKSPSQKESNESEDIQIAETPSNVTPKKKPSPEVPKLPDNRELTVKQVENYDSWEDLVSSIDTIERKDDGTLEIYLTWKNGAISHHPSTITNKKCPQKMLQFYESHLTFRENE
- fold tetramer formation over WT (SEC-MALS): ~1.6 fold

B5: Swi6 V82E-Y131W (natural protein, S. pombe, UniProt P40381 1-328, looked up)
chain: MKKGGVRSYRRSSTSKRSVIDDDSEPELPSMTKEAIASHKADSGSSDNEVESDHESKSSSKKLKENAKEEEGGEEEEEDEYEVEKVLKHRMARKGGGYEYLLKWEGYDDPSDNTWSSEADCSGCKQLIEAWWNEHGGRPEPSKRKRTARPKKPEAKEPSPKSRKTDEDKHDKDSNEKIEDVNEKTIKFADKSQEEFNENGPPSGQPNGHIESDNESKSPSQKESNESEDIQIAETPSNVTPKKKPSPEVPKLPDNRELTVKQVENYDSWEDLVSSIDTIERKDDGTLEIYLTWKNGAISHHPSTITNKKCPQKMLQFYESHLTFRENE
- fold tetramer formation over WT (SEC-MALS): ~3.5 fold
- stoichiometry N (SEC-MALS): 4 and 8
